In US20090081211A1 (published 2009) one finds Kd data, which are given here for one molecule.

The experiment has as its target human C3b (UniProt P01024 23-667; P01024 749-1663). The experiment can be described thus: SPR.

human C3b, sequence (P01024 other isoform, or with tags, fused parts or gaps, chain 1 of 2): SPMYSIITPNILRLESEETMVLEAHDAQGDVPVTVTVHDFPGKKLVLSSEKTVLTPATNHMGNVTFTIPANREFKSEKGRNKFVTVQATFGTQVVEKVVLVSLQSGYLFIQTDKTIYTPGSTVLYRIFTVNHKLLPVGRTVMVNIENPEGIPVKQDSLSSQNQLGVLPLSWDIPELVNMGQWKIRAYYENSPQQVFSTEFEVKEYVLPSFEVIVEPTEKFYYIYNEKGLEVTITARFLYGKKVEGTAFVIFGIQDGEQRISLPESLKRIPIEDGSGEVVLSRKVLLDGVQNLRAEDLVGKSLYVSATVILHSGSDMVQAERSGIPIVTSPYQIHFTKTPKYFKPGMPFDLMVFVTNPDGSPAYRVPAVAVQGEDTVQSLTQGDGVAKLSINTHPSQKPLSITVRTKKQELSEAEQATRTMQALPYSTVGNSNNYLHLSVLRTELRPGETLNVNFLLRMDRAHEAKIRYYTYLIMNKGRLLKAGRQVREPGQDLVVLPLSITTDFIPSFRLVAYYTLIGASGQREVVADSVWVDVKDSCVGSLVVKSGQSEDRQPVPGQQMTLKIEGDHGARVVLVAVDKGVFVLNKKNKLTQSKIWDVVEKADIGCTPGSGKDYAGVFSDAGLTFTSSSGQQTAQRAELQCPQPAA
human C3b, sequence (P01024 other isoform, or with tags, fused parts or gaps, chain 2 of 2): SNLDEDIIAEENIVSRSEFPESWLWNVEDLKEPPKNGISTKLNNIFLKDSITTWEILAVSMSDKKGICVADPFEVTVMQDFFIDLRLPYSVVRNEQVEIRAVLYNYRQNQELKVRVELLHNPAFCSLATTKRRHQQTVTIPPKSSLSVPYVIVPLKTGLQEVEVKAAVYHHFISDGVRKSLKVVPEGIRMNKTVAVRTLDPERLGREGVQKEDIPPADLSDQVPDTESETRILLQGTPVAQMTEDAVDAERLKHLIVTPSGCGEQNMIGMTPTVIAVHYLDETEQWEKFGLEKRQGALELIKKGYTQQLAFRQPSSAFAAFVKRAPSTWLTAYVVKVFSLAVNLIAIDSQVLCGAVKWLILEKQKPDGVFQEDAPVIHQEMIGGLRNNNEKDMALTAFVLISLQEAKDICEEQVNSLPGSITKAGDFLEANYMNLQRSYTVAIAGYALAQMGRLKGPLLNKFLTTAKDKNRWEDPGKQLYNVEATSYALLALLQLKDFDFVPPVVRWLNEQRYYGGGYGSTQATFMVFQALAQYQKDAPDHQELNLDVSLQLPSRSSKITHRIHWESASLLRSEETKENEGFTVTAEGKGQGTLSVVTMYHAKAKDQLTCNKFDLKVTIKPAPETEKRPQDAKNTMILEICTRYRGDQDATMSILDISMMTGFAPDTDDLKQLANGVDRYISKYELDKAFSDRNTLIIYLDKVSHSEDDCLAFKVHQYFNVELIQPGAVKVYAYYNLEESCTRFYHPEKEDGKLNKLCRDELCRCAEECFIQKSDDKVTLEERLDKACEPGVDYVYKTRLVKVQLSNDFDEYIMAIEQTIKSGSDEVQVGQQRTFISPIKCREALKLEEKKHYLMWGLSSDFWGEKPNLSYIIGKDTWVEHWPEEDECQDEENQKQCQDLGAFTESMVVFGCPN

B1: antibody YW144.2.43.S77 Fab fragment (Fab, V domains shown)
VH: EVQLVESGGGLVQPGGSLRLSCAASGFSFTSSSVSWVRQAPGKGLEWVGLIYPYNGFNYYADSVKGRFTISADTSKNTAYLQMNSLRAEDTAVYYCARNALYGSGGYYAMDYWGQGTLVTVSS
VL: DIQMTQSPSSLSASVGDRVTITCRASQDVSTAVAWYQQKPGKAPKLLIYSASFLYSGVPSRFSGSGSGTDFTLTISSLQPEDFATYYCQQSYATLPTFEQGTKVEIK
B1 had a dissociation constant (Kd) of 6.47 nM.

In general, Kd refers to the concentration at which binding is half-saturated. A lower Kd goes with a tighter complex.
